# According to publication PMC8391295, “Unraveling Human AQP5-PIP Molecular Interaction and Effect on AQP5 Salivary Glands Localization in SS Patients” (Cells, 2021):
# Target: T1, full-length His-tagged AQP5 (human, UniProt P55064 1-265)
# T1 construct: aquaporin-5 (AQP5), human, full-length construct with His-tag; also called FL-AQP5; full-length AQP5; source: Pichia pastoris X-33, purified (solubilised in NG, Resource S, Superdex 200)
# Assay: MST; labeled PIP at 42 nM, 1:1 dilution series of AQP5; 20 mM phosphate buffer pH 7.5, 100 mM NaCl, 0.8% NG; Hill equation fit on total monomeric AQP5 concentration; triplicates
# Details: both partners purified
# T1 sequence (P55064 whole entry): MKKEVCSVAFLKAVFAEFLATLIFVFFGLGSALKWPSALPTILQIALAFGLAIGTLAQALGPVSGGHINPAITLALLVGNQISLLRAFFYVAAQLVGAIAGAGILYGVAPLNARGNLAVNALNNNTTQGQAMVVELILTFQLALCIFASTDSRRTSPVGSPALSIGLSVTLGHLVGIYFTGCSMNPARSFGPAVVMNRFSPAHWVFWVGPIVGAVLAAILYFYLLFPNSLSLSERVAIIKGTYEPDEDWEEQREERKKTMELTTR
binder,measurement,value
"mature C-terminal His-tag PIP (prolactin-inducible protein, residues 29-146) (natural protein, human, UniProt P12273 29-146, looked up, non homogeneously glycosylated; labeled with an amine-reactive dye (Monolith NT Protein RED-NHS Labeling Kit) in the MST experiments, also called recombinant PIP; purified PIP; source: Pichia pastoris, secreted into the media, purified (HisTrap HP, Superdex 200); not shown: His6 (thrombin-cleavable), C-terminal, kept) QDNTRKIIIKNFDIPKSVRPNDEVTAVLAVQTELKECMVVKTYLISSIPLQGAFNYKYTACLCDDNPKTFYWDFYTNRTVQIAAVVDVIRELGICPDDAAVIPIKNNRFYTIEILKVE",Kd,570 nM
